Experiments:
Test in all cases: ELISA
[1] = target: H3 HA A/Texas/50/2012, recombinant soluble trimer (influenza A virus)
[2] = target: H1 HA A/Solomon Islands/03/2006 (H1N1), recombinant soluble trimer (influenza A virus)
[3] = target: H1 HA A/Texas/36/1991 (H1N1), recombinant soluble trimer (influenza A virus)

Measured: EC50 relative to wild type rFluA-20

B1: rFluA-20 heavy chain mutant Y100aA (antibody, V domains shown)
VH: QVQLQESGPGLVKPSETLSLTCSVSGVSVTSDIYYWTWIRQPPGKGLEWIGYIFYNGDTNYNPSLKSRVTMSIDTSKNEFSLRLTSVTAADTAVYFCARGTEDLGACSSGSCPNHWGQGTLVTVSS
VL: DIQMTQSPSSLSASIGDRVTITCRPSQNIRSFLNWFQHKPGKAPKLLIYAASNLQSGVPSRFSGSGSGTEFTLTIRSLQPEDFATYYCQQSYNTPPTFGQGTKVEIK
> 100 fold: all assays above

Source: patent US20220387578A1
